Test results reported in patent US20100029702A1, “Method For Identification of Compound Having Anti-Anxiety Effect” (priority 2006, published 2010).

Target: T1, protein encoded by ph01207 (Homo sapiens, UniProt O60241, DEL308-362)
T1 construct: expressed in transfected cells; host or cells: CHO-K1 (HA-ph01207#10-6, FERM BP-10101), T8HA-attR/pCINeo
T1 sequence (O60241 with tags, fused parts or gaps DEL308-362): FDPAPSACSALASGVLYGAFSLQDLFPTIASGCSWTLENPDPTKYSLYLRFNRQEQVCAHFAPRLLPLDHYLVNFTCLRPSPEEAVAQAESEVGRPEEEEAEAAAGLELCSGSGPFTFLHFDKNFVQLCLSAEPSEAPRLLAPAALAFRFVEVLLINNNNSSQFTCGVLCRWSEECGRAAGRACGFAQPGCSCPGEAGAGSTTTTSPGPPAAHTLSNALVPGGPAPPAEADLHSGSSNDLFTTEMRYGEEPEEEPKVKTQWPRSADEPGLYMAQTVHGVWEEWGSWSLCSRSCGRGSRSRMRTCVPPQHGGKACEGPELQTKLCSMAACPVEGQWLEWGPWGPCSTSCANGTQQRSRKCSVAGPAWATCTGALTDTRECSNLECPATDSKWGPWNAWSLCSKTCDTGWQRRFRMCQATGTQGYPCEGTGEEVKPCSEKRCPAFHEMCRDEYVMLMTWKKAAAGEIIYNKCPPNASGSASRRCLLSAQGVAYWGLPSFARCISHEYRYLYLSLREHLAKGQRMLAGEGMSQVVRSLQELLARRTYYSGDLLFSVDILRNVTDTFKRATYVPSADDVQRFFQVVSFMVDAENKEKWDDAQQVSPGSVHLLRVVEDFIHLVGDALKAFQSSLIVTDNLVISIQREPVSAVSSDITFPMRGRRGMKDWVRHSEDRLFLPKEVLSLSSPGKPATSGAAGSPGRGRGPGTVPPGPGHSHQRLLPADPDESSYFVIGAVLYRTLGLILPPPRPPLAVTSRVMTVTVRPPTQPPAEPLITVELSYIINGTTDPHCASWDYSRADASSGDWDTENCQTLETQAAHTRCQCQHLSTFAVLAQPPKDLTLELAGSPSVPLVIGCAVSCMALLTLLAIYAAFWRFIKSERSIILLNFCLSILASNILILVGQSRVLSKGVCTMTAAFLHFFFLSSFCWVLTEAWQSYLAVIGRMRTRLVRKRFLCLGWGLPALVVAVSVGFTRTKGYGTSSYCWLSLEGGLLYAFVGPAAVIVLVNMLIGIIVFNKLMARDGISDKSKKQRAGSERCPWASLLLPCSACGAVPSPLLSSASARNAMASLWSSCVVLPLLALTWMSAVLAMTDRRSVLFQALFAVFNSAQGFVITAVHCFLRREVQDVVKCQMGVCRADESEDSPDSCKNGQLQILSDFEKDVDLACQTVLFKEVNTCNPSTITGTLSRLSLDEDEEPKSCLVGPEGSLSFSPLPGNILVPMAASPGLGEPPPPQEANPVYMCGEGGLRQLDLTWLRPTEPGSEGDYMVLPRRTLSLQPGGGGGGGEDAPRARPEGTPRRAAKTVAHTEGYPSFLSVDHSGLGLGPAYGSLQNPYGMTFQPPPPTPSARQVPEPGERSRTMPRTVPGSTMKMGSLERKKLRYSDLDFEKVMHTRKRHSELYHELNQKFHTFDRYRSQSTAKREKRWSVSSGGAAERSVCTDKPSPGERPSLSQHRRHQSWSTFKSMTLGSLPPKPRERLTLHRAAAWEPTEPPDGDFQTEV
Test: Changes in intracellular Ca2+ concentration in HA-ph01207#10-6 cell strain (CHO-K1 stably expressing ph01207)
Format: cell-based
Procedure: Changes in the intracellular calcium (Ca^2+) concentration induced by CCK-8S (SEQ ID NO: 14), CCK-8NS, or CCK-4 were measured using the cell strains expressing ph01207 prepared in Example 2. The cell strains prepared in Example 2 were eight strains that expressed the protein encoded by ph01207 as FLAG-tag fusion proteins and four strains that expressed the protein encoded by ph01207 as HA-tag fusion proteins. Of these, the HA-ph01207#10-6 cell strain, a strain obtained by cloning one of the cell strains that stably expressed the protein encoded by ph01207 as HA-tag fusion proteins, was used in this example. CCK-8NS was a CCK octapeptide having the same amino acid sequence as that of CCK-8S (SEQ ID NO: 14), but a region from the C terminus to the seventh tyrosine residue was not sulfated. CCK-4 was a tetrapeptide comprising residues from the C terminus to the fourth amino acid of CCK-8S (SEQ ID NO: 14).
The specific method for measuring changes in the intracellular Ca^2+ concentration in the HA-ph01207#10-6 cell strain induced by CCK-8S (SEQ ID NO: 14) and the results are described below. The HA-ph01207#10-6 cell strain was seeded on a 96-well plate (a plate with a black wall and a transparent bottom) at a cell count of 2×10^4/100 μL medium/well and cultured at 37° C. in the presence of 5% CO2. As a medium, DMEM/F12 (Gibco) containing 10% fetal calf serum (Moregate) was used. On the following day, 50 μL of the medium was removed from each well, 50 μL of a loading buffer was added to each well, and the mixture was reacted at room temperature for 1.5 h, so that a fluorescent dye contained in the loading buffer should be taken up into the cell. The loading buffer was prepared by dissolving component A of the FLIPR Calcium 3 Assay Kit (Molecular Device) in a solution obtained by adding 0.1 mL of 500 mM probenecid (Sigma) to 9.9 mL of component B. After reaction, changes over time in the fluorescence intensity in each well after addition of CCK-8S (Peptide Institute, Inc.) were measured using the FLEX station (Molecular Device). Furthermore, similar measurement was performed for CCK-8NS (Peptide Institute, Inc.) and CCK-4 (Peptide Institute, Inc.). 0.52 mg of CCK-8S (SEQ ID NO: 14) was dissolved in 4.5 mL of 1% NaHCO3 (Wako) to prepare a solution having 0.1 mM concentration. 0.53 mg of CCK-8NS was dissolved in 0.50 mL of dimethyl sulfoxide (DMSO, Sigma), and then 4.50 mL of redistilled water H2O was added to prepare a solution having 0.1 mM concentration. 0.54 mg of CCK-4 was dissolved in 0.46 mL of DMSO, 4.09 mL of redistilled water was added to prepare a solution having 0.2 mM concentration. […]

Molecule | Change in intracellular Ca2+ concentration (fluorescence intensity) (peptide at final concentration 1 nM) | Change in intracellular Ca2+ concentration (fluorescence intensity) (A23187 10 μM, positive control)
cholecystokinin octapeptide sulfated form [CCK-8S] | increased | 
CNc1ccc2oc(C[C@H]3O[C@@]4(CC[C@H]3C)O[C@H]([C@H](C)C(=O)c3ccc[nH]3)[C@H](C)C[C@H]4C)nc2c1C(=O)O [A23187] |  | increased
